Substitutions are numbered along the chain they refer to. Names may count otherwise.
B1: TetRrev96/99-2: revTetR(BD) G99K V99A (protein)
chain: MSRLDKSKVINSALELLNEVGIEGLTTRKLAQKLGVEQPTLYWHVKNKRALLDALAVEILARHHDYSLPAAGESWQSFLRNNAMSFRRALLRYRDKAKAHLGTRPDEKQYDTVETQLRFMTENGFSLRDGLYAISAVSHFTLGAVLEQQEHTAALTDRPAAPDENLPPLLREALQIMDSDDGEQAFLHGLESLIRGFEVQLTALLQIV
modifications: Modified tetracycline repressor
notes: revTetR(BD) G99K V99A
B2: TetRrevAtc4-20: revTetR(BD) V57V E58K L60V A61T R62G (protein)
chain: B1 chain with E58K, L60V, A61T, R62G, K96G, A99V
modifications: Modified tetracycline repressor
notes: revTetR(BD) V57V E58K L60V A61T R62G
B3: TetRrev96/99-13: revTetR(BD) G96T V99D (protein)
chain: B1 chain with K96T, A99D
modifications: Modified tetracycline repressor
notes: revTetR(BD) G96T V99D
B4: TetRrev96/99-4: revTetR(BD) G96P V99S (protein)
chain: B1 chain with K96P, A99S
modifications: Modified tetracycline repressor
notes: revTetR(BD) G96P V99S
B5: TetRrevAtc4-16: revTetR(BD) D53N A54G V57F I59S L60F (protein)
chain: B1 chain with D53N, A54G, V57F, I59S, L60F, K96G, A99V
modifications: Modified tetracycline repressor
notes: revTetR(BD) D53N A54G V57F I59S L60F
B6: TetRrev96/99-12: revTetR(BD) G96H V99Q (protein)
chain: B1 chain with K96H, A99Q
modifications: Modified tetracycline repressor
notes: revTetR(BD) G96H V99Q
B7: TetRrev96/99-11: revTetR(BD) G96R V99Y (protein)
chain: B1 chain with K96R, A99Y
modifications: Modified tetracycline repressor
notes: revTetR(BD) G96R V99Y
B8: TetRrev96/99-8: revTetR(BD) G96N V99H (protein)
chain: B1 chain with K96N, A99H
modifications: Modified tetracycline repressor
notes: revTetR(BD) G96N V99H
B9: TetRrev96/99-15: revTetR(BD) G96P V99P (protein)
chain: B1 chain with K96P, A99P
modifications: Modified tetracycline repressor
notes: revTetR(BD) G96P V99P
B10: TetRrevAtc4-24: revTetR(BD) A56P V57A E58Q H63Q (protein)
chain: B1 chain with A56P, V57A, E58Q, H63Q, K96G, A99V
modifications: Modified tetracycline repressor
notes: revTetR(BD) A56P V57A E58Q H63Q
B11: TetRrevAtc4-2: revTetR(BD) R49G L55L V57V E58N R62L H63Q (protein)
chain: B1 chain with R49G, E58N, R62L, H63Q, K96G, A99V
modifications: Modified tetracycline repressor
notes: revTetR(BD) R49G L55L V57V E58N R62L H63Q
B12: TetRrev96/99-10: revTetR(BD) G96N V99P (protein)
chain: B1 chain with K96N, A99P
modifications: Modified tetracycline repressor
notes: revTetR(BD) G96N V99P
B13: TetRrev96/99-7: revTetR(BD) G96L V99K (protein)
chain: B1 chain with K96L, A99K
modifications: Modified tetracycline repressor
notes: revTetR(BD) G96L V99K
B14: TetRrevAtc4-23: revTetR(BD) A50D L51V L52Q A54A L55L A61S (protein)
chain: B1 chain with A50D, L51V, L52Q, A61S, K96G, A99V
modifications: Modified tetracycline repressor
notes: revTetR(BD) A50D L51V L52Q A54A L55L A61S
B15: TetRrev96/99-18: revTetR(BD) G96T V99P (protein)
chain: B1 chain with K96T, A99P
modifications: Modified tetracycline repressor
notes: revTetR(BD) G96T V99P
B16: TetRrev96/99-5: revTetR(BD) G96I V99K (protein)
chain: B1 chain with K96I, A99K
modifications: Modified tetracycline repressor
notes: revTetR(BD) G96I V99K
B17: TetRrev96/99-20: revTetR(BD) G96S V99K (protein)
chain: B1 chain with K96S, A99K
modifications: Modified tetracycline repressor
notes: revTetR(BD) G96S V99K
B18: TetRrev96/99-14: revTetR(BD) G96N V99N (protein)
chain: B1 chain with K96N, A99N
modifications: Modified tetracycline repressor
notes: revTetR(BD) G96N V99N
B19: TetRrevAtc4-22: revTetR(BD) R49H A56P V57L L60M (protein)
chain: B1 chain with R49H, A56P, V57L, L60M, K96G, A99V
modifications: Modified tetracycline repressor
notes: revTetR(BD) R49H A56P V57L L60M
B20: TetRrev96/99-3: revTetR(BD) G96E V99T (protein)
chain: B1 chain with K96E, A99T
modifications: Modified tetracycline repressor
notes: revTetR(BD) G96E V99T
B21: TetRrev96/99-9: revTetR(BD) G96H V99N (protein)
chain: B1 chain with K96H, A99N
modifications: Modified tetracycline repressor
notes: revTetR(BD) G96H V99N
B22: TetRrevAtc4-25: revTetR(BD) K48K V57L E58V I59T L60F R62S (protein)
chain: B1 chain with V57L, E58V, I59T, L60F, R62S, K96G, A99V
modifications: Modified tetracycline repressor
notes: revTetR(BD) K48K V57L E58V I59T L60F R62S
B23: TetRrev96/99-17: revTetR(BD) G96T V99K (protein)
chain: B1 chain with K96T, A99K
modifications: Modified tetracycline repressor
notes: revTetR(BD) G96T V99K
B24: TetRrev96/99-16: revTetR(BD) G96P V99Y (protein)
chain: B1 chain with K96P, A99Y
modifications: Modified tetracycline repressor
notes: revTetR(BD) G96P V99Y
B25: TetRrev96/99-19: revTetR(BD) G96R V99S (protein)
chain: B1 chain with K96R, A99S
modifications: Modified tetracycline repressor
notes: revTetR(BD) G96R V99S
B26: TetRrevAtc4-21: revTetR(BD) K6K D53F L55L V57L I59S A61S (protein)
chain: B1 chain with D53F, V57L, I59S, A61S, K96G, A99V
modifications: Modified tetracycline repressor
notes: revTetR(BD) K6K D53F L55L V57L I59S A61S
B27: TetRrev96P: revTetR(BD) G96P (protein)
chain: B1 chain with K96P, A99V
modifications: Modified tetracycline repressor
notes: revTetR(BD) G96P
B28: TetRrev96/99-6: revTetR(BD) G96N V99Q (protein)
chain: B1 chain with K96N, A99Q
modifications: Modified tetracycline repressor
notes: revTetR(BD) G96N V99Q

System: tet operator sequence
Experiment: β-galactosidase activity of a tetracycline-regulated promoter in transformed E. coli with revTetR, in the presence and absence of anhydrotetracycline (atc)
Format: cell-based, Escherichia coli
Settings: for β-Galactosidase Activity, Cultured Without ATC: RevTetR isolate cultured in the absence of anhydrotetracycline (ATC); for β-Galactosidase Activity, Cultured With ATC: RevTetR isolate cultured in the presence of anhydrotetracycline (ATC)
How it was run: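 TetR(BD) chimera mutants (TetR(B) residues 1–50, TetR(D) 51–208) expressed in E. coli regulating a tet operator-controlled lacZ. β-Galactosidase measured in Miller units at 28 °C and 37 °C with and without anhydrotetracycline; reported as percent of maximal expression without Tet repressor.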

| Molecule | β-Galactosidase Activity, Cultured Without ATC | β-Galactosidase Activity, Cultured With ATC |
| --- | --- | --- |
| B1 | 94.5832 | 31.604 |
| B2 | 78.478 | 8.048 |
| B3 | 103.963 | 16.95 |
| B4 | 109.291 | 32.997 |
| B5 | 104.174 | 16.914 |
| B6 | 102.406 | 18.841 |
| B7 | 97.6643 | 18.656 |
| B8 | 103.657 | 24.309 |
| B9 | 110.413 | 14.218 |
| B10 | 61.649 | 13.63 |
| B11 | 3.143 | 0.9516 |
| B12 | 106.137 | 20.797 |
| B13 | 55.0127 | 13.224 |
| B14 | 105.95 | 21.606 |
| B15 | 85.7142 | 7.5138 |
| B16 | 57.8391 | 17.087 |
| B17 | 81.8583 | 3.0074 |
| B18 | 110.999 | 14.693 |
| B19 | 80.2859 | 3.7584 |
| B20 | 103.749 | 31.808 |
| B21 | 71.6829 | 14.528 |
| B22 | 98.629 | 12.116 |
| B23 | 92.9198 | 8.4558 |
| B24 | 93.7512 | 9.8301 |
| B25 | 95.188 | 7.4009 |
| B26 | 104.757 | 16.831 |
| B27 | 24.1109 | 4.1882 |
| B28 | 103.602 | 28.364 |

From US20030186281A1, “Modified tetracycline repressor protein compositions and methods of use” (priority 2001, published 2003)
